Laboratory results taken from publication PMC12239813.

Molecular target: human FLT3 receptor (human) (UniProt P36888)
Assay: SPR

Chain of UniProt P36888 (P36888 27-993): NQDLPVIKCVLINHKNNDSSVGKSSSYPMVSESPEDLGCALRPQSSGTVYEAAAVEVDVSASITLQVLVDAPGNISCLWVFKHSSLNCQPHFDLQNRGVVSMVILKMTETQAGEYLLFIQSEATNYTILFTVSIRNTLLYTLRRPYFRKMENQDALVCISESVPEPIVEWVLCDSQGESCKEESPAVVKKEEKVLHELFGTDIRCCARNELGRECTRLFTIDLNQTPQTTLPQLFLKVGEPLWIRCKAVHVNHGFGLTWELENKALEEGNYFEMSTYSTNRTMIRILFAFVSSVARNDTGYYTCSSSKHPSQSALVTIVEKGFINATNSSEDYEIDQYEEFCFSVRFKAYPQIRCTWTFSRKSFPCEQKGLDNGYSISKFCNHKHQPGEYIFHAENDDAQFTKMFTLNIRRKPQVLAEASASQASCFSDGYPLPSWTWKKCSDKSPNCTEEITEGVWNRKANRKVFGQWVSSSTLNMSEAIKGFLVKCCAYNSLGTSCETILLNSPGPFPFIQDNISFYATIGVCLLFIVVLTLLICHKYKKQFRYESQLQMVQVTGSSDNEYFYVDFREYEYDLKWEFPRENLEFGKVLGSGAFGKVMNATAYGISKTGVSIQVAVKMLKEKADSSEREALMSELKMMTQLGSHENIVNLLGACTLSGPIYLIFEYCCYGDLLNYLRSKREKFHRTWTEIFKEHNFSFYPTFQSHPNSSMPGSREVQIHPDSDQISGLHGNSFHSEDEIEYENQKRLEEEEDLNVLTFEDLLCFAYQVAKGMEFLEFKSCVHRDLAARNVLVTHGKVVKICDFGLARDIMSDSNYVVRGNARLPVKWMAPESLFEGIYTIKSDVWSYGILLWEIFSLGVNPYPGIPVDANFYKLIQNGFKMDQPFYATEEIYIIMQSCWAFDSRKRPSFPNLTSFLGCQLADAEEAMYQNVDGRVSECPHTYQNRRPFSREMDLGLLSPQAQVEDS

- Kd: 0.0223 µM
- koff: 0.812 s⁻¹
Substance: human FLT3L protein (from UniProt P49771 27-184) (ligand)
